Results as given in patent US7803758B2, “I kappa B kinase complex as a target for the treatment of Huntington's disease” (California Institute of Technology, priority 2004, dated 2010).

T1: IKKβ subunit (Homo sapiens, UniProt O14920)
T1 sequence (O14920 1-756): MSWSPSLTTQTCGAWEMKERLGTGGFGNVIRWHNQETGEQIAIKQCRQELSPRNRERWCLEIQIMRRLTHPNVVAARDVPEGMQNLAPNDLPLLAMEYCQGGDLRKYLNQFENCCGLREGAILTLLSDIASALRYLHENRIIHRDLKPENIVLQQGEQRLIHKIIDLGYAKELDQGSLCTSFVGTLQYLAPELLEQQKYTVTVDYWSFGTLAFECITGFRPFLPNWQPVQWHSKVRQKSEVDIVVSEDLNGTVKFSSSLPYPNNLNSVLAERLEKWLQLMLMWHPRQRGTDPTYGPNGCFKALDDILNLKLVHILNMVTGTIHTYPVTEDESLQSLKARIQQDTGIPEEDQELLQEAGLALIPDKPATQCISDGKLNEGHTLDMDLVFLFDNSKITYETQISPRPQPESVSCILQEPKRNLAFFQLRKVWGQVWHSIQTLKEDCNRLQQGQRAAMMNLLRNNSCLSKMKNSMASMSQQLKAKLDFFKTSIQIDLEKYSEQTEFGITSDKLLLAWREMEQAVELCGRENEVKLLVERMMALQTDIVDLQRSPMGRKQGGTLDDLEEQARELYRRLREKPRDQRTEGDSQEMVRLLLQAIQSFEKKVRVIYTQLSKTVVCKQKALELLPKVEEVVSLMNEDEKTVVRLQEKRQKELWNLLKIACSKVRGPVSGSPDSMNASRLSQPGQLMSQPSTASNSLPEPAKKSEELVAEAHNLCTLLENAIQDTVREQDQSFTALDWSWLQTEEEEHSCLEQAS

B1: DN-IKKγ: IKKγ with the first 134 amino acids removed; N-terminally truncated form that interferes with IKK activity (protein, UniProt Q9Y6K9 135-419, looked up, fragment)
chain: MAEDKASVKAQVTSLLGELQESQSRLEAATKECQALEGRARAASEQARQLESEREALQQQHSVQVDQLRMQGQSVEAALRMERQAASEEKRKLAQLQVAYHQLFQEYDNHIKSSVVGSERKRGMQLEDLKQQLQQAEEALVAKQEVIDKLKEEAEQHKIVMETVPVLKAQADIYKADFQAERQAREKLAEKKELLQEQLEQLQREYSKLKASCQESARIEDMRKRHVEVSQAPLPPAPAYLSSPLALPSQRRSPPEEPPDFCCPKCQYQAPDMDTLQIHVMECIE

Legend:
striatal MSNs = assay: Brain slice neurodegeneration assay (biolistic transfection of MSNs with HDx1); assay type: cell-based; conditions: P7 rat brain slices; for neurodegeneration / toxicity of mutant HDx1 in MSNs: coexpression with mutant HDx1, 7 d; for effect on MSNs expressing WT HDx1: coexpression with WT HDx1
Experimental: Brain slice preparation. All animal experiments were performed in accordance with the Institutional Animal Care and Use Committee and Duke University Medical Center Animal Guidelines. Postnatal day 7 (P7) CD Sprague Dawley rats (Charles River Laboratory, Raleigh, N.C.) were decapitated, and the brains were surgically removed and placed in ice-cold Neurobasal medium (Invitrogen). The tissue was fixed to a chilled, stainless steel Vibratome stage using cyanoacrylate glue (Krazy-Glue) and covered with Neurobasal medium. Coronal brain slices (250 μm thick) were cut by Vibratome (VT1000S; Leica, Nusslock Germany) as described previously (Edgerton and Reinhart, 2003). Brain slices were kept at 37° C. in 5.0% CO2 for 1 hr.
Bolistic transfection. Gold particles (1.6 μm gold microcarriers; BioRad, Hercules, Calif.) were used as DNA carriers for transfection as described previously (Lo et al., 1994). Briefly, gold particles were sonicated in 0.05 M spermidine in the presence of plasmid DNA. The gold-DNA mixture was washed three times in 100% ethanol before being loaded into Helios plastic cartridges (Bio-Rad) according to manufacturer's instructions. Slices were transfected using a Bio-Rad Helios gun with a cyan fluorescent protein (CFP)-tagged Htt fragment, together with yellow fluorescent protein (YFP) as a morphometric marker. In a number of experiments, one of the IKKγ constructs was also cotransfected with the Htt-construct and YFP. CFP-tagged Htt fragments were exon-1-N-terminal fragments containing either a short-Q (Q23) or a long-Q (Q148) polyQ domain.
Brain slice neurodegeneration assay. For each condition, transfections were performed on […] brain slices per experiment. Protein expression and neurodegeneration (loss of processes, shriveling of the soma) were assay 2-7 d after transfection using a Leica fluorescence microscope with appropriate filters for YFP and CFP. The total area of the striatum was identified, and transfected MSNs were identified by their morphology. CFP fluorescence was used to determine expression of Htt fragments and their aggregation into macro-inclusions. Each experiment involved three to twelve transfected brain slices per condition, and the data are means from six independent experiments for each condition.

IKKβ subunit = target: T1, IKKβ subunit; conditions: Ogino et al., Mol. Pharmacol. 2004; cited from earlier work
[1] = system: NF-κB-dependent gene expression; assay: NF-κB luciferase gene reporter assay in inducible PC12 cells expressing mutant HDx1; assay type: cell-based
From the text: Gene Reporter and transfections. The pNF-κB-luciferase with five enhanced elements and the control plasmid without NF-κB binding sites, pCIS-CK luciferase, were used for gene reporter assays (Strategene, La Jolla, Calif.). To normalize for transfection efficiency between samples, a β-galactosidase (β-gal) construct expressed from the EF-1α promoter (Invitrogen, Carlsbad, Calif.), was included in all gene reporter assays. PC12 cells were transfected with control or NF-κB-luciferase plasmids using lipofectamine-plus. On the following day, cells were left untreated or stimulated for 8 hr with 1 μg/ml ecdysone to induce expression of HDx1. […] Luciferase activity was measured by addition of the substrate (Promega, Madison, Wis.) to equal amounts of protein from each sample. […] All gene reporter assays were corrected for transfection efficiency by normalizing the units if β-gal in the extracts, using the β-gal assay (Invitrogen). β-gal values from the samples were divided by the β-gal value from control, 25polyQ, noninduced PC12 cells (no expression of HDx1) and multiplied by each corresponding luciferase reading. […]
Gene Reporter and transfections. […] Protein concentration was determined by the BCA method (Pierce, Rockford, Ill.). […] Bound p65 was detected with a goat anti-rabbit antibody conjugated to horseradish peroxidase. […]

[2] = system: PC12 cells expressing mutant HDx1; assay: Mutant HDx1 toxicity in PC12 cells treated with IKK inhibitor; assay type: cell-based; conditions: Example 5
Experimental: To examine the effects of a small molecule IKK inhibitor on mutant Htt toxicity, PC12 cells expressing mutant HDx1 are treated with herbimycin or another known IKK inhibitor plus β-gal and NF-κB reporter in six-well plates, essentially as described above in Example 4.

HEK-293 cells [3] = assay: Mutant HDx1 toxicity in transfected HEK-293 cells (count of condensed GFP-positive bodies); assay type: cell-based, Human; conditions: 48 hr after transfection
Experimental: (§1) Transfection of HEK-293 cells with mutant HDx1-EGFP alone (Kasantsev et al., 1999) or with one of the following constructs, full-length (F), DN, and deleted C terminus (DC) of IKKγ (provided by Dr. E. Zandi, University of Southern California) Rothwarf et al., 1998) or ΔF-βTrCP, was done using lipofectamine-plus reagents (Invitrogen). For histochemistry, cultured cells were fixed in 4% paraformaldehyde for 30 min, permeabilized with 70% methanol for 1 hr., and washed with PBS. Cells were stained with anti-HA for IKKγ or anti-myc for ΔF-βTrCP (Cell Signaling, Beverly, Mass.) followed by a goat anti-mouse antibody conjugated by Alexa 594 (Molecular Probes, Eugene, Oreg.). Toto-3, a dimeric cyanine, was used to stain nuclei (Molecular Probes). […] Mutant HDx1 toxicity was assessed by counting the number of condensed GFP-positive bodies, which are remnants of […] deoxynucleotidyl transferase-mediated biotinylated UTP nick endlabeling (TUNEL)-positive (TUNEL^+) cells (Khoshnan et al., 2002), using a florescence microscope. […] Apoptotic cells were labeled with terminal deoxynucleotidyl transferase using digoxigenin-labeled nucleotides and detected by anti-digoxigenin antibody and rhodamine-conjugated secondary according to the instructions provided by the manufacturer (Chemicon, Temecula, Calif.).

mutant HDx1 = assay: Confocal examination of mutant HDx1 aggregation in HEK-293 cells; assay type: cell-based, Human; conditions: early time point before widespread toxicity
Experimental: as §1

HEK-293 cells [4] = assay: TUNEL staining of HEK-293 cells transfected with mutant HDx1; assay type: cell-based, Human; conditions: HEK-293 cells cotransfected with mutant HDx1
Experimental: as §1

GST-HDx1 = target: T2, GST-HDx1 (Homo sapiens, UniProt P42858, INS38QQQQQQQQQQQQQQQQQQQQQQQQQQQQQQ); assay: GST pull-down binding of in vitro-translated IKKγ constructs to GST-HDx1; conditions: [35S] methionine-labeled construct, GST-HDx1 with expanded polyQ
T2 construct: GST-HDx1 with 20 or 51 polyQs, with and without polyproline domains, was obtained from Dr. E. Wanker; made in house; host or cells: Escherichia coli
Experimental: Protein-protein interaction. In vitro binding of IKKγ to mutant HDx1 was performed using glutathione S-transferase (GST)-pull down assays. GST-HDx1 with 20 or 51 polyQs, with and without polyproline domains, was obtained from Dr. E. Wanker (Max Plank Institute, Berlin, Germany). These constructs were expressed in Escherichia coli and purified with glutathione beads (Amersham Biosciences, Piscataway, N.J.) according to manufacturer's instructions. IKKγ constructs were transcribed and translated in rabbit reticulocytes in the presence of [^35S] methionine (Promega). Briefly, 5 μg of GST-HDx1 bound to beads was incubated with 10 μl of each labeled in vitro-translated IKKγ produce in 500 μl of Tris-based buffer containing 10% glycerol and 6 mM DTT and rocked at room temperature for 2 hr. Beads were washed five times in the same buffer. Bound IKKγ was examined by SDS-PAGE, followed by autoradiography. Recombinant anti-HDx1 intrabodies (Khoshnan et al., 2002) were expressed and examined similarly from binding to GST-HDx1. For competition assays, 10-fold excess in vitro-translated intrabodies were added to GST-HDx1 plus deleted C terminus IKKγ and processed as above.

T2 sequence (P42858 with tags, fused parts or gaps with the stated changes): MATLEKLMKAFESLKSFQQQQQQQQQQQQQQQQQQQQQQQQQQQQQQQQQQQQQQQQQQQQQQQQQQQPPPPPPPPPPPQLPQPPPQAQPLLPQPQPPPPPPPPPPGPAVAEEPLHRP

| Molecule | neurodegeneration / toxicity of mutant HDx1 in MSNs (striatal MSNs) | NF-κB activation (IKKβ subunit) | NF-κB expression ([1]; PC12 cells expressing mutant HDx1, Example 5) | toxicity of mutant HDx1 in cultured cells [2] | toxicity of mutant HDx1 (condensed GFP+ bodies) (HEK-293 cells [3]) | aggregation of mutant HDx1 (mutant HDx1) | effect on MSNs expressing WT HDx1 (striatal MSNs) | number of TUNEL+ cells (HEK-293 cells [4]) | binding of IKKγ construct to HDx1 (GST-HDx1) | mutant HDx1-induced NF-κB-dependent gene expression ([1]; PC12 cells, ecdysone-induced HDx1, with or without NGF) |
| --- | --- | --- | --- | --- | --- | --- | --- | --- | --- | --- |
| WT-βTrCP: wild-type E3-ubiquitin ligase βTrCP | does not influence the toxicity of mutant HDx1 in MSNs |  |  |  |  |  |  |  |  |  |
| CO[C@H]1[C@@H](OC)C[C@H](C)[C@@H](OC)C2=CC(=O)C=C(NC(=O)/C(C)=C/C=C\[C@H](OC)[C@@H](OC(N)=O)/C(C)=C/[C@@H]1C)C2=O [Herbimycin, Herbimycin A] |  | abrogates NF-κB activation | reduce NF-κB expression | blocks the toxicity |  |  |  |  |  |  |
| IKKγ: full-length regulatory subunit of the IKK complex, expressed from a construct | no significant effect on neurodegeneration |  |  |  | little effect on toxicity | promotes aggregation of mutant HDx1 | no obvious effect |  |  |  |
| B1 | significantly neuroprotective |  |  |  | strongly reduces the toxicity of mutant HDx1 | no apparent effect on HDx1 aggregation | no obvious effect | significantly reduced | diminishes binding to HDx1 | blocks basal and NGF-induced NF-κB-dependent gene expression |
